According to publication PMC12062237, “Phosphate-binding pocket on cyclin B governs CDK substrate phosphorylation and mitotic timing” (Nature Communications, 2025):

T1: Clb2 (aa 187-491), wild-type (S. cerevisiae, UniProt P24869 187-491)
T1 construct: Clb2, major mitotic B-type cyclin of S. cerevisiae, aa 187-491; also called wild-type Clb2; source: E. coli BL21(DE3) Star, pET28, purified (Ni-NTA, S200 gel filtration)
T1 sequence (looked up): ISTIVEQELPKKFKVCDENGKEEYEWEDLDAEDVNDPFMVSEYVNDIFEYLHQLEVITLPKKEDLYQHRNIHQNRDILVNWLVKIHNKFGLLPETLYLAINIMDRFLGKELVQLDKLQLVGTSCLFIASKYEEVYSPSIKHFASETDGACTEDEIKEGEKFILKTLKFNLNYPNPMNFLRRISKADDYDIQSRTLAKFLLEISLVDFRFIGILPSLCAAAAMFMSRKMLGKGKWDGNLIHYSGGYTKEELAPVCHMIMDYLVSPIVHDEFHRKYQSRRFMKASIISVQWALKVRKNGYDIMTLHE

T2: Clb2-pp mutant (R366A, R379A, K383A), aa 187-491 (S. cerevisiae, UniProt P24869 187-491, R366A | R379A | K383A)
T2 construct: also called PP mutant Clb2; source: E. coli BL21(DE3) Star, pET28, purified (Ni-NTA, S200 gel filtration)
T2 sequence (looked up): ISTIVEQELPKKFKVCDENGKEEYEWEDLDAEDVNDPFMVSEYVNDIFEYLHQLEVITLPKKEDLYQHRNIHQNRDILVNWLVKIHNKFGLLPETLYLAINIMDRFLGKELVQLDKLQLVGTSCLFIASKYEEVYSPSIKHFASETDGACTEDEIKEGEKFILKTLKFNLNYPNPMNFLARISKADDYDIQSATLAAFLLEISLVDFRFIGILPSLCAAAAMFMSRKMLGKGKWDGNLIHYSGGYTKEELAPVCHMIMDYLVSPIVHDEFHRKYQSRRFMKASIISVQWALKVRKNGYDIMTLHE


Key:
Settings in all cases: both partners purified
[1] = target: T1, Clb2 (aa 187-491), wild-type; test: reconstitution of an active kinase complex by mixing; 10.5 uM Cak1-phosphorylated Cdk1 and 10.5 uM Clb2, on ice 60 min, then desalted; the complex is known by its kinase activity only
[2] = target: T2, Clb2-pp mutant (R366A, R379A, K383A), …; test: as above
[3] = target: T3, Clb2-Cdk1 complex, wild-type Clb2 (S. cerevisiae, UniProt P24869 187-491; P00546 1-298, phosphothreonine at 169 (by Cak1)); test: reconstitution of an active kinase complex by mixing; Clb2-Cdk1 combined with equimolar Cks1; no separate test of association
T3 construct: Clb2 of S. cerevisiae, aa 187-491; Cdk1 (Cdc28) of S. cerevisiae, made as a GST-TEV-Cdk1 fusion; formed before Cks1 was added; also called wild-type Clb2-Cdk1; active Clb2-Cdk1; source: assembled from purified Clb2 (E. coli) and purified Cak1-phosphorylated Cdk1 (Sf9), desalted

[4] = target: T4, Clb2-Cdk1 complex, Clb2-pp mutant (S. cerevisiae, UniProt P24869 187-491; P00546 1-298, R366A | R379A | K383A, phosphothreonine at 169 (by Cak1)); test: as above
T4 construct: Clb2 of S. cerevisiae, aa 187-491, phosphate-pocket mutant; Cdk1 (Cdc28) of S. cerevisiae, made as a GST-TEV-Cdk1 fusion; formed before Cks1 was added; also called clb2-pp Clb2-Cdk1; PP mutant Clb2-Cdk1; source: assembled from purified Clb2-pp (E. coli) and purified Cak1-phosphorylated Cdk1 (Sf9), desalted
T4 sequence (P00546 whole entry, stated change not applied, the tested form may be a part, one chain of several): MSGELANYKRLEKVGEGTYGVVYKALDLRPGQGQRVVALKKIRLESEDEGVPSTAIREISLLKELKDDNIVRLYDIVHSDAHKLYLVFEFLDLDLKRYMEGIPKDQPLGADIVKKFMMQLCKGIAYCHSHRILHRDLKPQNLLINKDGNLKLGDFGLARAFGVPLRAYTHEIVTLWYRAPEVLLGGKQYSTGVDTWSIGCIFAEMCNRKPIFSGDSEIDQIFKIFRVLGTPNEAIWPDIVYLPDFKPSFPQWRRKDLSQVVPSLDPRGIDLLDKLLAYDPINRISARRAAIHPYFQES

T3 sequence (P00546 whole entry, the tested form may be a part, one chain of several): as the sequence (P00546 whole entry, stated change not applied, the tested form may be a part, one chain of several) above

Binder | binding result [1] | binding result [2] | binding result [3] | binding result [4]
Cdk1 (Cdc28), T169-phosphorylated (enzyme, phosphothreonine at 169 (by Cak1), Cdk1 (Cdc28) of S. cerevisiae, made as a GST-TEV-Cdk1 fusion; no TEV cleavage is described; the pooled fractions are called GST-Cdk1; also called GST-Cdk1; phosphorylated Cdk1; source: Sf9, baculovirus, purified (Glutathione Sepharose, S200 gel filtration); phosphorylated with purified Cak1) not shown | binds | binds |  | 
Cks1, wild-type (natural protein, S. cerevisiae, UniProt P20486 1-150, looked up, Cks1 of S. cerevisiae; also called wild-type Cks1; source: E. coli BL21(DE3) Star, purified (boiling, ammonium sulfate, S200 gel filtration)) MYHHYHAFQGRKLTDQERARVLEFQDSIHYSPRYSDDNYEYRHVMLPKAMLKVIPSDYFNSEVGTLRILTEDEWRGLGITQSLGWEHYECHAPEPHILLFKRPLNYEAELRAATAAAQQQQQQQQQQQQQQQQHQTQSISNDMQVPPQIS |  |  | binds | binds
Cks1 mutant (R33E, S82E, R102A) (natural protein, S. cerevisiae, UniProt P20486 1-150, looked up, also called mutant Cks1; source: E. coli BL21(DE3) Star, purified (boiling, ammonium sulfate, S200 gel filtration)) MYHHYHAFQGRKLTDQERARVLEFQDSIHYSPEYSDDNYEYRHVMLPKAMLKVIPSDYFNSEVGTLRILTEDEWRGLGITQELGWEHYECHAPEPHILLFKAPLNYEAELRAATAAAQQQQQQQQQQQQQQQQHQTQSISNDMQVPPQIS |  |  | binds | binds
